Test results taken from patent US20250368978A1, “SQUALENE HOPENE CYCLASE VARIANTS FOR PRODUCING SCLAREOLIDE” (INTERNATIONAL FLAVORS & FRAGRANCES INC., priority 2022, published 2025).

Experiment: SHC variant screening reactions: conversion of HFA to sclareolide by freeze-dried whole cells, GC analysis
Assay type: biochemical, Gluconobacter morbifer
Conditions: for Fold improvement (sclareolide production): 10 mg/mL HFA, 100% enzyme loading, based on % peak area, relative to V45L+Q54E+I278T+T326S variant, no metal ions; for Fold improvements (sclareolide production): 20 mg/mL HFA, 50% enzyme loading, relative to initial mutant
Description: SHC Variant Enzyme Expression. Wild-type and the GmSHC variants of Table 5 were individually cloned into pET28a(+). These DNA constructs were transformed into Lemo21 (DE3) E. coli and plated onto agar plates containing Kanamycin. These were incubated overnight at 37° C. A single bacterial colony was picked and used to inoculate 10 mL LB+Kanamycin in a 50 mL falcon tube. This primary culture was incubated overnight at 37° C. with agitation. These cultures (10 mL) were used to inoculate 1L LB+Kanamycin in a shake flask, which was subsequently incubated at 37° C. at 180 rpm for about 4 hours. Protein expression was then induced with the addition of 0.4 mM IPTG and 0.2 mM L-rhamnose. The incubator temperature was lowered to 25° C. and the cultures further incubated at 180 rpm overnight. The next day, the cultures were centrifuged at 4000 rpm for 10 minutes and the supernatant discarded. Cell pellets were resuspended in 0.1 M Potassium phosphate buffer pH 7.4 and exposed to 1 round of freeze/thawing before lyophilization and then use in the reaction assay.
SHC Variant Screening Reactions. Sodium citrate buffer 0.2 M, pH 5 was prepared and 500 μL of this buffer was added to freeze-dried whole cells of each variant (from 1 L shake flask fermentation of E. coli transformed with desired variant plasmid). The results were obtained with an enzyme loading of 50% (w/w). Subsequently, HFA (20 mg/mL) was added to the buffer/enzyme mix. The reactions were incubated at 25° C. with agitation for 72 hours. To stop the reaction and extract the products, a 2X volume of 3:2, heptane: isopropanol was added to each reaction. These were then incubated at 37° C. for 30 minutes with agitation to mix thoroughly. The reactions were centrifuged for 10 minutes at 4000 rpm to pellet any cellular material. The upper organic layer was then removed and placed in a clean gas chromatography (GC) vial.
GC Analysis Method. A GC analytical method was used to detect each of the starting materials and products used in the screening reactions. Due to the volume of samples generated, a fast method was developed with a run time of only 4.5 minutes.
No metal ions were included in the reaction.
Further analysis was conducted to identify one or more optimal SHC enzymes. In particular, substrate loading was increased to 20 mg/mL and incubation with a reduced enzyme loading (50%).

Row | Molecule | Fold improvement (sclareolide production) | Fold improvements (sclareolide production)
1 | V45L + Q54E + V222K + I278T + T326S: GmSHC variant with these substitutions relative to SEQ ID NO: 2 (protein, Gluconobacter morbifer) MSPADISTKSSSFQRLDNMLPEAVSSACDWLIDQQKPDGHWVGPLESNACMEAEWCLALWFLGQEDHPLRPRLAQALLEMQREDGSWGIYVGADHGDINTTVEAYAALRSMGYAADMPIMAKSAAWIQQKGGLRNVRVFTRYWLALIGEWPWDKTPNLPPEIIWLPDNFIFSIYNFAQWARATMMPLTILSARRPSRPLLPENRLDGLFPEGRENFDYELPKKGEEDLWGRFFRAADKGLHSLQSFPVRRFVPREAAIRHVIEWIIRHQDADGGWGGTQPPWIYGLMALSVEGYPLHHPVLAKAMDALNDPGWRRDKGDASWIQASNSPVWDTMLAVLALHDAGAEDRYSPQMDKAIGWLLDRQVRVKGDWSIKLPDTEPGGWAFEYANDKYPDTDDTAVALIALAGCRHRPEWRERDIEGAISRGVNWLLAMQSSSGGWGAFDKDNNRSILTKIPFCDFGEALDPPSVDVTAHVLEAFGLLGISRNHPSVQKALAYIRSEQERNGAWFGRWGVNYVYGTGAVLPALAAIGEDMTQPYIVRACDWLMSVQQENGGWGESCASYMDINAVGHGVATASQTAWALIGLLAAKRPKDREAIARGCQFLIERQEDGSWTEEEYTGTGFPGYGVGQAIKLDDPSLPDRLLQGAELSRAFMLRYDLYRQYFPVMALSRARRMMKEDASAAA | 5.4 Fold | 12 Fold
2 | V45L + Q54E + I278T + T326S: GmSHC variant, first mutant enzyme which showed formation of sclareolide (protein) MSPADISTKSSSFQRLDNMLPEAVSSACDWLIDQQKPDGHWVGPLESNACMEAEWCLALWFLGQEDHPLRPRLAQALLEMQREDGSWGIYVGADHGDINTTVEAYAALRSMGYAADMPIMAKSAAWIQQKGGLRNVRVFTRYWLALIGEWPWDKTPNLPPEIIWLPDNFIFSIYNFAQWARATMMPLTILSARRPSRPLLPENRLDGLFPEGRENFDYELPVKGEEDLWGRFFRAADKGLHSLQSFPVRRFVPREAAIRHVIEWIIRHQDADGGWGGTQPPWIYGLMALSVEGYPLHHPVLAKAMDALNDPGWRRDKGDASWIQASNSPVWDTMLAVLALHDAGAEDRYSPQMDKAIGWLLDRQVRVKGDWSIKLPDTEPGGWAFEYANDKYPDTDDTAVALIALAGCRHRPEWRERDIEGAISRGVNWLLAMQSSSGGWGAFDKDNNRSILTKIPFCDFGEALDPPSVDVTAHVLEAFGLLGISRNHPSVQKALAYIRSEQERNGAWFGRWGVNYVYGTGAVLPALAAIGEDMTQPYIVRACDWLMSVQQENGGWGESCASYMDINAVGHGVATASQTAWALIGLLAAKRPKDREAIARGCQFLIERQEDGSWTEEEYTGTGFPGYGVGQAIKLDDPSLPDRLLQGAELSRAFMLRYDLYRQYFPVMALSRARRMMKEDASAAA | -0- Fold | 0 Fold
3 | V45L + Q54E + V222Q + R249R + I278T + T326S: GmSHC variant with these substitutions relative to SEQ ID NO: 2 (protein, Gluconobacter morbifer) MSPADISTKSSSFQRLDNMLPEAVSSACDWLIDQQKPDGHWVGPLESNACMEAEWCLALWFLGQEDHPLRPRLAQALLEMQREDGSWGIYVGADHGDINTTVEAYAALRSMGYAADMPIMAKSAAWIQQKGGLRNVRVFTRYWLALIGEWPWDKTPNLPPEIIWLPDNFIFSIYNFAQWARATMMPLTILSARRPSRPLLPENRLDGLFPEGRENFDYELPQKGEEDLWGRFFRAADKGLHSLQSFPVRRFVPREAAIRHVIEWIIRHQDADGGWGGTQPPWIYGLMALSVEGYPLHHPVLAKAMDALNDPGWRRDKGDASWIQASNSPVWDTMLAVLALHDAGAEDRYSPQMDKAIGWLLDRQVRVKGDWSIKLPDTEPGGWAFEYANDKYPDTDDTAVALIALAGCRHRPEWRERDIEGAISRGVNWLLAMQSSSGGWGAFDKDNNRSILTKIPFCDFGEALDPPSVDVTAHVLEAFGLLGISRNHPSVQKALAYIRSEQERNGAWFGRWGVNYVYGTGAVLPALAAIGEDMTQPYIVRACDWLMSVQQENGGWGESCASYMDINAVGHGVATASQTAWALIGLLAAKRPKDREAIARGCQFLIERQEDGSWTEEEYTGTGFPGYGVGQAIKLDDPSLPDRLLQGAELSRAFMLRYDLYRQYFPVMALSRARRMMKEDASAAA | 3.9 Fold | 30.3 Fold
4 | V45L + Q54E + V222K + I278S + T326S: GmSHC variant with these substitutions relative to SEQ ID NO: 2 (protein, Gluconobacter morbifer) MSPADISTKSSSFQRLDNMLPEAVSSACDWLIDQQKPDGHWVGPLESNACMEAEWCLALWFLGQEDHPLRPRLAQALLEMQREDGSWGIYVGADHGDINTTVEAYAALRSMGYAADMPIMAKSAAWIQQKGGLRNVRVFTRYWLALIGEWPWDKTPNLPPEIIWLPDNFIFSIYNFAQWARATMMPLTILSARRPSRPLLPENRLDGLFPEGRENFDYELPKKGEEDLWGRFFRAADKGLHSLQSFPVRRFVPREAAIRHVIEWIIRHQDADGGWGGSQPPWIYGLMALSVEGYPLHHPVLAKAMDALNDPGWRRDKGDASWIQASNSPVWDTMLAVLALHDAGAEDRYSPQMDKAIGWLLDRQVRVKGDWSIKLPDTEPGGWAFEYANDKYPDTDDTAVALIALAGCRHRPEWRERDIEGAISRGVNWLLAMQSSSGGWGAFDKDNNRSILTKIPFCDFGEALDPPSVDVTAHVLEAFGLLGISRNHPSVQKALAYIRSEQERNGAWFGRWGVNYVYGTGAVLPALAAIGEDMTQPYIVRACDWLMSVQQENGGWGESCASYMDINAVGHGVATASQTAWALIGLLAAKRPKDREAIARGCQFLIERQEDGSWTEEEYTGTGFPGYGVGQAIKLDDPSLPDRLLQGAELSRAFMLRYDLYRQYFPVMALSRARRMMKEDASAAA | 7.4 Fold | 28.4 Fold
5 | V45L + Q54E + M184T + R249R + I278T + T326S: GmSHC variant with these substitutions relative to SEQ ID NO: 2 (protein, Gluconobacter morbifer) MSPADISTKSSSFQRLDNMLPEAVSSACDWLIDQQKPDGHWVGPLESNACMEAEWCLALWFLGQEDHPLRPRLAQALLEMQREDGSWGIYVGADHGDINTTVEAYAALRSMGYAADMPIMAKSAAWIQQKGGLRNVRVFTRYWLALIGEWPWDKTPNLPPEIIWLPDNFIFSIYNFAQWARATTMPLTILSARRPSRPLLPENRLDGLFPEGRENFDYELPVKGEEDLWGRFFRAADKGLHSLQSFPVRRFVPREAAIRHVIEWIIRHQDADGGWGGTQPPWIYGLMALSVEGYPLHHPVLAKAMDALNDPGWRRDKGDASWIQASNSPVWDTMLAVLALHDAGAEDRYSPQMDKAIGWLLDRQVRVKGDWSIKLPDTEPGGWAFEYANDKYPDTDDTAVALIALAGCRHRPEWRERDIEGAISRGVNWLLAMQSSSGGWGAFDKDNNRSILTKIPFCDFGEALDPPSVDVTAHVLEAFGLLGISRNHPSVQKALAYIRSEQERNGAWFGRWGVNYVYGTGAVLPALAAIGEDMTQPYIVRACDWLMSVQQENGGWGESCASYMDINAVGHGVATASQTAWALIGLLAAKRPKDREAIARGCQFLIERQEDGSWTEEEYTGTGFPGYGVGQAIKLDDPSLPDRLLQGAELSRAFMLRYDLYRQYFPVMALSRARRMMKEDASAAA | 3.3 Fold | 
